This is an account of results in publication PMC10786891, “Massively parallel profiling of RNA-targeting CRISPR-Cas13d”.

The labels stand for the following.
T1: EsCas13d, nuclease-dead (Eubacterium siraeum, UniProt B0MS50, R295A;H300A;R849A;H854A)
T1 sequence: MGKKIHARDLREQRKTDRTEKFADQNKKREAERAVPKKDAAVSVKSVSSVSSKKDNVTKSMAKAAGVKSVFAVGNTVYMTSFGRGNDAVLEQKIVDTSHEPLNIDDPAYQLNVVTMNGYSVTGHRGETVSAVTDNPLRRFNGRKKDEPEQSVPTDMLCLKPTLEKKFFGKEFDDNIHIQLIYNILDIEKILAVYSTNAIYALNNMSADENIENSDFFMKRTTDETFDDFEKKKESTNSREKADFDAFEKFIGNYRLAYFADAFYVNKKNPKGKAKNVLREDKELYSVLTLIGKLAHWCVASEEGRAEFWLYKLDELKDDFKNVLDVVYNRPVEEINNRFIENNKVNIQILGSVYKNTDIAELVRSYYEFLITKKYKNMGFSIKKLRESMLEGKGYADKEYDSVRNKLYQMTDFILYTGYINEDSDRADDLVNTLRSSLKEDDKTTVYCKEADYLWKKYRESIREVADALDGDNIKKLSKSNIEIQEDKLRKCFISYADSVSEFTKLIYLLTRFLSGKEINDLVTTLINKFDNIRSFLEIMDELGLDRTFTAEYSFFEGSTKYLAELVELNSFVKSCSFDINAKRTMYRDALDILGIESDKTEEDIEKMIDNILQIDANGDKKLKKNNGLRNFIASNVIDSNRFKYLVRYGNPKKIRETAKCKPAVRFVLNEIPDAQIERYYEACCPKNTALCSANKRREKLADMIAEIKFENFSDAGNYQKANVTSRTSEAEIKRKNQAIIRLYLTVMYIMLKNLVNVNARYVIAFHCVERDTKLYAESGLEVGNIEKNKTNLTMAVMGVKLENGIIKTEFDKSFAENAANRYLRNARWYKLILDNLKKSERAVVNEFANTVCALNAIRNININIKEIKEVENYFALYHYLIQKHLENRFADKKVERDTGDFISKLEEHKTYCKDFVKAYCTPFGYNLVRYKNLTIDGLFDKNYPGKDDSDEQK

B1: target 1 U3G,U8A (mixed)
RNA 1: CACCCGUGCAAAAAUGCAGGGGUCUAAAACUGAGCGGAUAACCUCUCUAUGG
RNA 2: GGGAAUGGAUCCACAUCUACGAAUUCGUACCAUAGAGAGGUUAACCGCGCACCGAGAUCGGAAGAGCACACGU
B2: target 1 insC 3' of 20,insG 3' of 6 (mixed)
RNA 1: CACCCGUGCAAAAAUGCAGGGGUCUAAAACUGAGCGGAUAACCUCUCUAUGG
RNA 2: GGGAAUGGAUCCACAUCUACGAAUUCGUACCACUAGAGAGGUUAUCCGGCUCACCGAGAUCGGAAGAGCACACGU
B3: target 2 MT 5'PFS UAA 3'PFS AUA (mixed)
RNA 1: CACCCGUGCAAAAUUGCAGGGGUCUAAAACCUUCUCCAAAUUGUUUCAUCCU
RNA 2: GGGAAUGGAUCCACAUCUACGAAUUCUAAAGGAUGAAACAAUUUGGAGAAGAUAAGAUCGGAAGAGCACACGU
B4: target 2 MT 5'PFS UAC 3'PFS CUG (mixed)
RNA 1: CACCCGUGCAAAAUUGCAGGGGUCUAAAACCUUCUCCAAAUUGUUUCAUCCU
RNA 2: GGGAAUGGAUCCACAUCUACGAAUUCUACAGGAUGAAACAAUUUGGAGAAGCUGAGAUCGGAAGAGCACACGU
B5: target 2 MT 5'PFS AGC 3'PFS CUA (mixed)
RNA 1: CACCCGUGCAAAAUUGCAGGGGUCUAAAACCUUCUCCAAAUUGUUUCAUCCU
RNA 2: GGGAAUGGAUCCACAUCUACGAAUUCAGCAGGAUGAAACAAUUUGGAGAAGCUAAGAUCGGAAGAGCACACGU
B6: target 2 MT 5'PFS UAC 3'PFS CUU (mixed)
RNA 1: CACCCGUGCAAAAUUGCAGGGGUCUAAAACCUUCUCCAAAUUGUUUCAUCCU
RNA 2: GGGAAUGGAUCCACAUCUACGAAUUCUACAGGAUGAAACAAUUUGGAGAAGCUUAGAUCGGAAGAGCACACGU
B7: target 2 MT 5'PFS AGC 3'PFS CUG (mixed)
RNA 1: CACCCGUGCAAAAUUGCAGGGGUCUAAAACCUUCUCCAAAUUGUUUCAUCCU
RNA 2: GGGAAUGGAUCCACAUCUACGAAUUCAGCAGGAUGAAACAAUUUGGAGAAGCUGAGAUCGGAAGAGCACACGU
B8: target 2 MT 5'PFS GCU 3'PFS AAA (mixed)
RNA 1: CACCCGUGCAAAAUUGCAGGGGUCUAAAACCUUCUCCAAAUUGUUUCAUCCU
RNA 2: GGGAAUGGAUCCACAUCUACGAAUUCGCUAGGAUGAAACAAUUUGGAGAAGAAAAGAUCGGAAGAGCACACGU
B9: target 2 MT 5'PFS AGC 3'PFS CUC (mixed)
RNA 1: CACCCGUGCAAAAUUGCAGGGGUCUAAAACCUUCUCCAAAUUGUUUCAUCCU
RNA 2: GGGAAUGGAUCCACAUCUACGAAUUCAGCAGGAUGAAACAAUUUGGAGAAGCUCAGAUCGGAAGAGCACACGU
B10: target 2 MT 5'PFS AAU 3'PFS CUC (mixed)
RNA 1: CACCCGUGCAAAAUUGCAGGGGUCUAAAACCUUCUCCAAAUUGUUUCAUCCU
RNA 2: GGGAAUGGAUCCACAUCUACGAAUUCAAUAGGAUGAAACAAUUUGGAGAAGCUCAGAUCGGAAGAGCACACGU
B11: target 2 MT 5'PFS UAA 3'PFS AUU (mixed)
RNA 1: CACCCGUGCAAAAUUGCAGGGGUCUAAAACCUUCUCCAAAUUGUUUCAUCCU
RNA 2: GGGAAUGGAUCCACAUCUACGAAUUCUAAAGGAUGAAACAAUUUGGAGAAGAUUAGAUCGGAAGAGCACACGU
B12: target 2 MT 5'PFS GAU 3'PFS AUC (mixed)
RNA 1: CACCCGUGCAAAAUUGCAGGGGUCUAAAACCUUCUCCAAAUUGUUUCAUCCU
RNA 2: GGGAAUGGAUCCACAUCUACGAAUUCGAUAGGAUGAAACAAUUUGGAGAAGAUCAGAUCGGAAGAGCACACGU
B13: target 2 MT 5'PFS GAU 3'PFS AUG (mixed)
RNA 1: CACCCGUGCAAAAUUGCAGGGGUCUAAAACCUUCUCCAAAUUGUUUCAUCCU
RNA 2: GGGAAUGGAUCCACAUCUACGAAUUCGAUAGGAUGAAACAAUUUGGAGAAGAUGAGAUCGGAAGAGCACACGU
B14: target 2 MT 5'PFS AAU 3'PFS CUU (mixed)
RNA 1: CACCCGUGCAAAAUUGCAGGGGUCUAAAACCUUCUCCAAAUUGUUUCAUCCU
RNA 2: GGGAAUGGAUCCACAUCUACGAAUUCAAUAGGAUGAAACAAUUUGGAGAAGCUUAGAUCGGAAGAGCACACGU
B15: target 2 MT 5'PFS UAC 3'PFS CUC (mixed)
RNA 1: CACCCGUGCAAAAUUGCAGGGGUCUAAAACCUUCUCCAAAUUGUUUCAUCCU
RNA 2: GGGAAUGGAUCCACAUCUACGAAUUCUACAGGAUGAAACAAUUUGGAGAAGCUCAGAUCGGAAGAGCACACGU
B16: target 2 MT 5'PFS UUU 3'PFS CCU (mixed)
RNA 1: CACCCGUGCAAAAUUGCAGGGGUCUAAAACCUUCUCCAAAUUGUUUCAUCCU
RNA 2: GGGAAUGGAUCCACAUCUACGAAUUCUUUAGGAUGAAACAAUUUGGAGAAGCCUAGAUCGGAAGAGCACACGU
B17: target 2 MT 5'PFS GAU 3'PFS AUA (mixed)
RNA 1: CACCCGUGCAAAAUUGCAGGGGUCUAAAACCUUCUCCAAAUUGUUUCAUCCU
RNA 2: GGGAAUGGAUCCACAUCUACGAAUUCGAUAGGAUGAAACAAUUUGGAGAAGAUAAGAUCGGAAGAGCACACGU
B18: target 2 MT 5'PFS AAU 3'PFS CCG (mixed)
RNA 1: CACCCGUGCAAAAUUGCAGGGGUCUAAAACCUUCUCCAAAUUGUUUCAUCCU
RNA 2: GGGAAUGGAUCCACAUCUACGAAUUCAAUAGGAUGAAACAAUUUGGAGAAGCCGAGAUCGGAAGAGCACACGU
B19: target 2 MT 5'PFS AAC 3'PFS CAG (mixed)
RNA 1: CACCCGUGCAAAAUUGCAGGGGUCUAAAACCUUCUCCAAAUUGUUUCAUCCU
RNA 2: GGGAAUGGAUCCACAUCUACGAAUUCAACAGGAUGAAACAAUUUGGAGAAGCAGAGAUCGGAAGAGCACACGU
B20: target 2 MT 5'PFS UUU 3'PFS CCA (mixed)
RNA 1: CACCCGUGCAAAAUUGCAGGGGUCUAAAACCUUCUCCAAAUUGUUUCAUCCU
RNA 2: GGGAAUGGAUCCACAUCUACGAAUUCUUUAGGAUGAAACAAUUUGGAGAAGCCAAGAUCGGAAGAGCACACGU
B21: target 2 MT 5'PFS UAC 3'PFS CUA (mixed)
RNA 1: CACCCGUGCAAAAUUGCAGGGGUCUAAAACCUUCUCCAAAUUGUUUCAUCCU
RNA 2: GGGAAUGGAUCCACAUCUACGAAUUCUACAGGAUGAAACAAUUUGGAGAAGCUAAGAUCGGAAGAGCACACGU
B22: target 2 MT 5'PFS AAC 3'PFS CAU (mixed)
RNA 1: CACCCGUGCAAAAUUGCAGGGGUCUAAAACCUUCUCCAAAUUGUUUCAUCCU
RNA 2: GGGAAUGGAUCCACAUCUACGAAUUCAACAGGAUGAAACAAUUUGGAGAAGCAUAGAUCGGAAGAGCACACGU
B23: target 2 MT 5'PFS AAC 3'PFS CAA (mixed)
RNA 1: CACCCGUGCAAAAUUGCAGGGGUCUAAAACCUUCUCCAAAUUGUUUCAUCCU
RNA 2: GGGAAUGGAUCCACAUCUACGAAUUCAACAGGAUGAAACAAUUUGGAGAAGCAAAGAUCGGAAGAGCACACGU
B24: target 2 MT 5'PFS AAC 3'PFS CAC (mixed)
RNA 1: CACCCGUGCAAAAUUGCAGGGGUCUAAAACCUUCUCCAAAUUGUUUCAUCCU
RNA 2: GGGAAUGGAUCCACAUCUACGAAUUCAACAGGAUGAAACAAUUUGGAGAAGCACAGAUCGGAAGAGCACACGU
B25: target 2 MT 5'PFS AGC 3'PFS CUU (mixed)
RNA 1: CACCCGUGCAAAAUUGCAGGGGUCUAAAACCUUCUCCAAAUUGUUUCAUCCU
RNA 2: GGGAAUGGAUCCACAUCUACGAAUUCAGCAGGAUGAAACAAUUUGGAGAAGCUUAGAUCGGAAGAGCACACGU
B26: target 2 MT 5'PFS AAU 3'PFS CUG (mixed)
RNA 1: CACCCGUGCAAAAUUGCAGGGGUCUAAAACCUUCUCCAAAUUGUUUCAUCCU
RNA 2: GGGAAUGGAUCCACAUCUACGAAUUCAAUAGGAUGAAACAAUUUGGAGAAGCUGAGAUCGGAAGAGCACACGU
B27: target 2 MT 5'PFS GGC 3'PFS AGU (mixed)
RNA 1: CACCCGUGCAAAAUUGCAGGGGUCUAAAACCUUCUCCAAAUUGUUUCAUCCU
RNA 2: GGGAAUGGAUCCACAUCUACGAAUUCGGCAGGAUGAAACAAUUUGGAGAAGAGUAGAUCGGAAGAGCACACGU

The data set has as its target T1, EsCas13d, nuclease-dead. In words: crRNA (strand 1, pre-loaded); Mg2+; 40 mM Tris-HCl pH 7.5, 150 mM NaCl, 6 mM MgCl2, 1 mM DTT, 0.1% Tween-20, 0.2 mg/ml BSA; 25 C; 10 min per concentration, then washed. To be noted: tags: His6-TwinStrep-SUMO cleaved; N-terminal SNAP kept (SNAP-Surface 488); label: 3' end held by stalled T7 RNA polymerase.
As a reminder, the Kd is the concentration at which binding is half-saturated. B1 displayed a Kd of 12 ± 0.6 nM.

With B2, the affinity, expressed as Kd, was 7.5 ± 0.4 nM.

For the molecule B3, the Kd worked out at 4.3 ± 0.6 nM. This Kd is about 1.7-fold lower than that of the molecule before.

In turn, B4 yielded a Kd of 10.4 ± 1.7 nM.

B5 yielded a Kd of 8.6 ± 1.5 nM.

The molecule B6 showed a Kd of 7.2 ± 1.1 nM.

Take B7: the Kd is 16.5 ± 3.4 nM.

In turn, B8 displayed a Kd of 5.9 ± 1 nM. Against the preceding molecule, the Kd is about 2.8-fold lower.

With B9, the Kd came out at 11.5 ± 2.8 nM.

B10 registered a Kd of 7.3 ± 0.8 nM.

With B11, the affinity, expressed as Kd, was 3.9 ± 0.6 nM.

B12 registered a Kd of 10.5 ± 1.8 nM.

The molecule B13 returned a Kd of 11.8 ± 1.1 nM.

Regarding B14, the affinity, expressed as Kd, was 9.4 ± 2 nM.

Consider B15, for which binding was characterised by a dissociation constant (Kd) of 16 ± 6 nM.

Molecule B16 showed a Kd of 52 ± 15 nM.

B17 came in with a Kd of 14 ± 6 nM.

B18 came in with a Kd of 5.9 ± 0.7 nM. This Kd lies about 2.4-fold lower than the previous one.

Regarding B19, the Kd was found to be 3.6 ± 0.6 nM.

In turn, B20 returned a dissociation constant Kd of 18.1 ± 2.5 nM.

Molecule B21 registered a Kd of 6.8 ± 1 nM.

Molecule B22 yielded a Kd of around 8 nM.

In turn, B23 showed a Kd of around 7 nM.

For the molecule B24, the Kd stood at 6.2 ± 2 nM.

In the case of B25, the Kd is 11.7 ± 1.5 nM.

B26 gave a Kd of 4.2 ± 0.5 nM. Compared with the last molecule, the Kd is about 2.8-fold lower.

As to B27, binding was characterised by a dissociation constant (Kd) of 11.5 ± 0.8 nM. Compared with the last molecule, the Kd is about 2.7-fold higher.
